Data reported in PMC8646600 (2021).

Legend:
[1] = molecular target: SARS-CoV-2 RBD titrated over immobilised Fabs (construct not stated) (SARS-CoV-2, UniProt P0DTC2 319-541); assay: BLI
[2] = molecular target: SARS-CoV-2 spike RBD (S-RBD), hFc tag removed by thrombin digestion, biotinylated (SARS-CoV-2, UniProt P0DTC2 319-541); assay: BLI

B1: S-B8 Fab (Fab, V domains shown)
VH: QVQLVQSGGGLIQPGGSLRLSCAASGFTVSLSHMNWVRQAPGKGLEWVSITYGDGNSDYADSVKGRFTISRDNSKNTLYLQMNSLRAEDTAVYYCAREYYYGMDVWGQGTTVTVSS
VL: not shown
Question: Which koff [1] does the source give for B1 here?
Answer: 0.0027 s⁻¹

B2: S-B8 full-length human IgG4e1(S228P) antibody (antibody, V domains shown)
VH: B1 VH
VL: not shown
Question: For B2, which koff [2] is on record?
Answer: 0.00267 s⁻¹

B3: S-E6 full-length human IgG4e1(S228P) antibody (antibody, V domains shown)
VH: QVTLRESGPGLVKPSETLSLTCAVSGGSLSSVNYYWSWIRQHPGKGLEWIGYIYYSGSTNYNPSLKSRVTMSLDTSKNQFSLKLSSVTAADTAVYYCATPGAIMGALHIWGQGTLVTVSS
VL: QAVLTQPSSASSTPGQRVIISCSGSSSNIGSNTVSWYQQVPGAAPKLLIYFDYRRPSGVPDRFSGTRSGTSASLGISGLQSEDEADYYCAAWDDSLSAWVFGRGTKLTVL
Question: How did the koff [2] turn out when B3 was run?
Answer: 0.000865 s⁻¹

B4: S-E6 Fab (Fab, V domains shown)
VH: B3 VH
VL: B3 VL
Question: Which koff [1] does the source give for B4 here?
Answer: 0.00196 s⁻¹
